Drawing on US20240158512A1 (TRUEBINDING, published 2024), this text covers Kd and IC50 for two molecules.

For assay [1], the target named is T1, Galectin-3 (UniProt P17931 1-250, limits assumed).
T1 construct: Target of the anti-Gal3 antibody TB006; also called Gal3; GAL3
In words: BLI; after 3 freeze/thaws, 100% vol. of container. On the technique in general: Biolayer interferometry detects binding as a change in optical thickness at a sensor tip.

Assay [2] concerns the target T1, Galectin-3. In words: ELISA (Biological Activity); long-term stability 5 C, 3 months. In general terms: In an ELISA, binding on a coated surface is turned into a signal by an enzyme label.
Assay [3] concerns the target T1, Galectin-3. In words: BLI; after 4 C for 1 month.
Assay [4] concerns the target T1, Galectin-3. In words: BLI; after 4 C for 18 months.
Assay [5] has as its target T1, Galectin-3. In words: BLI; after pipetting (shear stress).
The target in assay [6] is T1, Galectin-3. In words: BLI; after 40 C for 28 days.
The target in assay [7] is T1, Galectin-3. The experiment in a line: ELISA blocking assay; TB006 diluted to 0.31 mg/mL in 0.9% NaCl, 25 C, 1 h; blocked partner not named.
Assay [8] concerns the target T1, Galectin-3. The experiment in a line: BLI; after 40 C for 14 days.
The target in assay [9] is T1, Galectin-3. In words: ELISA (Biological Activity); accelerated stability 25 C/60% RH, 1 month.
Assay [10] deals with T1, Galectin-3. The experiment in a line: ELISA blocking assay; TB006 diluted to 0.31 mg/mL in 0.9% NaCl, 25 C, 0 h; blocked partner not named; Bag #1, 0 h.
In assay [11] the target is T1, Galectin-3. The experiment in a line: ELISA (Biological Activity); accelerated stability 25 C/60% RH, 3 months.
In assay [12] the target is T1, Galectin-3. In words: BLI; after -80 C for 3 months.
Assay [13] deals with T1, Galectin-3. In words: BLI; after 5 freeze/thaws, 100% vol. of container.
Assay [14] concerns the target T1, Galectin-3. The experiment in a line: BLI; after 40 C for 7 days.
Assay [15] has as its target T1, Galectin-3. In words: ELISA (Biological Activity); accelerated stability 25 C/60% RH, 0 months.
Assay [16] deals with T1, Galectin-3. In words: BLI; after 5 freeze/thaws, 50% vol. of container.
Assay [17] addresses T1, Galectin-3. In words: BLI; after 3 freeze/thaws, 25% vol. of container.
Assay [18] has as its target T1, Galectin-3. In words: BLI; after -80 C for 6 months.
Assay [19] deals with T1, Galectin-3. In words: ELISA blocking assay; TB006 diluted to 0.31 mg/mL in 0.9% NaCl, 25 C, 0.5 h; blocked partner not named.
For assay [20], the target named is T2, Galectin-3 (Gal3) (UniProt P17931 1-250, limits assumed).
T2 construct: Target of TB006
T2 sequence (P17931 whole entry): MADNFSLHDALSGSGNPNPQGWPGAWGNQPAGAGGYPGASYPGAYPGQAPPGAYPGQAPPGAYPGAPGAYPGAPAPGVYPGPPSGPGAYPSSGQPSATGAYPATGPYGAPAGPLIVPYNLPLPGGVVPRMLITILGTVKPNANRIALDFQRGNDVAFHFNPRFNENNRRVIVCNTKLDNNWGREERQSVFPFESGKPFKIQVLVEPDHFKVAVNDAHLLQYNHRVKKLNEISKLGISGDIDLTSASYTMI
The experiment in a line: BLI; 20 mg/mL DS after agitation for 3 days. The method in brief: (§1)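 Binding to Galectin-3 was assessed by biolayer interferometry and given as the dissociation constant (Kd). Samples were tested at time zero or after stress, namely agitation (shear), repeated freeze-thaw cycles, or storage at set temperatures. The storage conditions included a 40° C stress test and cryogenic storage.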

In assay [21] the target is T2, Galectin-3 (Gal3). The experiment in a line: BLI; 20 mg/mL DS after 4 C for 9 months. In a few lines: as §1
In assay [22] the target is T2, Galectin-3 (Gal3). The experiment in a line: BLI; 50 mg/mL DS after 3 freeze/thaws.
Assay [23] deals with T2, Galectin-3 (Gal3). In words: BLI; 20 mg/mL DS after 25 C for 9 months.
In assay [24] the target is T2, Galectin-3 (Gal3). The experiment in a line: BLI; 20 mg/mL DS after 4 C for 1 month.
In assay [25] the target is T2, Galectin-3 (Gal3). The experiment in a line: BLI; 20 mg/mL DS after 40 C for 14 days.
Assay [26] addresses T2, Galectin-3 (Gal3). In words: BLI; 50 mg/mL DS after -80 C for 9 months.
Assay [27] addresses T2, Galectin-3 (Gal3). The experiment in a line: BLI; 50 mg/mL DS after 4 C for 9 months.
Assay [28] concerns the target T2, Galectin-3 (Gal3). The experiment in a line: BLI; 50 mg/mL DS after 25 C for 1 month.
Assay [29] addresses T2, Galectin-3 (Gal3). In words: BLI; 50 mg/mL DS after 25 C for 3 months.
For assay [30], the target named is T2, Galectin-3 (Gal3). The experiment in a line: BLI; 50 mg/mL DS after -80 C for 6 months.
The target of assay [31] is T2, Galectin-3 (Gal3). In words: BLI; 50 mg/mL DS after 40 C for 7 days.
Assay [32] has as its target T2, Galectin-3 (Gal3). In words: BLI; 50 mg/mL DS after 4 C for 12 months.

Where “and” joins values, the source holds several entries; their conditions need not be identical. Equal entries are not always repeated.

T1 sequence (P17931 whole entry): as above

B1: TB006 (antibody, human IgG4 S228P, kappa, V domains shown)
VH: QVQLVQSGAEVKKPGASVKVSCKASGYSFTNYYMHWVRQAPGQRLEWMGWIYPGSGNTNYNEKFQGRVTITADTSASTAYMELSSLRSEDTAVYYCSTAPGGFDVWGQGTTVTVSS
VL: DIVMTQTPLSLSVTPGQPASISCKSSKSLLHSDGITYLYWYLQKPGQSPQLLIYRMSNLASGVPDRFSGSGSGTDFTLKISRVEAEDVGVYYCAQMLEFPLTFGQGTKLEIKR
notes: Tested as formulated drug substance or drug product in 20 mM L-histidine, 5 mM methionine, 100 mM NaCl, 0.02% polysorbate 80, pH 5.8, or diluted in 0.9% saline; also called 4A11.H3L1; IMT006a
B1: the Kd – broadly, the equilibrium constant for the complex coming apart – with Galectin-3 [1] is 2.7 nM; with Galectin-3 [3] it was 3.3 nM; with Galectin-3 [4], 2.1 nM; with Galectin-3 [5], 2.8 nM; in the assay with Galectin-3 [6] it was 3.1 nM; with Galectin-3 [8], 2.5 nM. Besides, the Kd with Galectin-3 [12] was determined as 3.3 nM; with Galectin-3 [13], 2.6 nM; with Galectin-3 [14], 2.4 nM; with Galectin-3 [16], 3.1 nM; in the assay with Galectin-3 [17], 2.8 nM; in the assay with Galectin-3 [18] it was 2.8 nM. In addition, the IC50 (usually the concentration needed to halve the response being measured) with Galectin-3 [2] was 1.5 µg/mL; with Galectin-3 [7], 1.63 µg/mL and 1.43 µg/mL; with Galectin-3 [9] it was 1.8 µg/mL; in the assay with Galectin-3 [10], 1.01 µg/mL; with Galectin-3 [11], 1.5 µg/mL; with Galectin-3 [15] it was 2.5 µg/mL. Also, the IC50 with Galectin-3 [19] is 1.66 µg/mL and 1.34 µg/mL.

B2: TB006 (antibody, human IgG4 S228P, kappa, V domains shown)
VH: B1 VH
VL: B1 VL
notes: Full antibody tested as drug substance (DS) in 20 mM L-histidine, 5 mM methionine, 100 mM NaCl, 0.02% polysorbate-80, pH 5.8; also called 4A11.H3L1; IMT006a
For B2, the Kd turned out to be 3.4 nM with Galectin-3 (Gal3) [20]; 1.9 nM with Galectin-3 (Gal3) [21]; 3.9 nM in the assay with Galectin-3 (Gal3) [22]; 2.1 nM in the assay with Galectin-3 (Gal3) [23]; 3.7 nM with Galectin-3 (Gal3) [24]; 2.9 nM with Galectin-3 (Gal3) [25]. The Kd with Galectin-3 (Gal3) [26] came to 2.8 nM; with Galectin-3 (Gal3) [27], 2.8 nM; with Galectin-3 (Gal3) [28], 2.2 nM; with Galectin-3 (Gal3) [29] it was 2.5 nM; in the assay with Galectin-3 (Gal3) [30], 1.8 nM; in the assay with Galectin-3 (Gal3) [31] it was 2.7 nM. In the assay with Galectin-3 (Gal3) [32], this molecule came in with a Kd of 3.7 nM.
